Reference: US11752213B2, “Surfaces having reduced non-specific binding and antigenicity” (Duke University, priority 2015, dated 2023)

Test system: IgG Ab to PEG in patient plasma
Assay: Indirect ELISA detection of APAs in patient plasma against Adagen-coated plates
Format: binding, human
Conditions: 5 replicates
Experimental: Informed signed consent was obtained from either the patient or from next of kin. (A) ELISA detection of APAs: Plasma samples diluted 1:21 in 1% BSA in PBS were tested by ELISA for IgG Ab to PEG, but using Adagen® (Sigma Tau Pharmaceuticals, Gaithersburg, Md.) rather than Krystexxa® as the antigen. (B) Surface fluoroimmunoassay against patient APAs: Polymer-coated surfaces were incubated with patient plasma samples diluted 1:3 in PBS for 1 h, and then washed 3 times with wash buffer (0.5% CHAPS in PBS). Next, the surfaces were exposed to a 1 μg/mL solution of Cy5-goat-anti-human IgG detection Ab (R & D Systems, Inc.) for 30 min. Surfaces were then rinsed again to remove any loosely-bound proteins, centrifuged at 4800 rpm for 15 s to wick away excess liquid, then allowed to dry under ambient conditions. Fluorescence imaging and analysis of all samples was performed using an Axon Genepix 4400 tabletop scanner and ImageJ Fiji as described above.
We performed an indirect ELISA on these patient plasma samples to quantify the level of IgG binding to Adagen (PEGylated adenosine deaminase).

B1: ADAGEN: a PEGylated adenosine deaminase for treating severe combined immunodeficiency disease (SCID) (conjugate)
chain: AQTPAFNKPKVELHVHLDGAIKPETILYYGRKRGIALPADTPEELQNIIGMDKPLSLPEFLAKFDYYMPAIAGCREAVKRIAYEFVEMKAKDGVVYVEVRYSPHLLANSKVEPIPWNQAEGDLTPDEVVSLVNQGLQEGERDFGVKVRSILCCMRHQPSWSSEVVELCKKYREQTVVAIDLAGDETIEGSSLFPGHVKAYAEAVKSGVHRTVHAGEVGSANVVKEAVDTLKTERLGHGYHTLEDATLYNRLRQENMHFEVCPWSSYLTGAWKPDTEHPVVRFKNDQVNYSLNTDDPLIFKSTLDTDYQMTKNEMGFTEEEFKRLNINAAKSSFLPEDEKKELLDLLYKAYGMPSPA
With B1 the “OD 405 nm Avg” value (Pt# 1, APA neg, sample 929-237-01) was 0.149, the “OD 405 nm Avg” value (Pt# 2, APA pos, sample 929-219-07) was 0.714 and the “OD 405 nm Avg” value (Pt# 3, APA pos, sample 929-237-12) was 1.243. The “OD 405 nm Avg” value (Pt# 4, APA pos, sample 929-241-07) was 1.679 and the “OD 405 nm Avg” value (Pt# 5, APA pos, sample 929-218-21) was 3.059.
